Reference: patent publication US20120322150A1 (CARNEGIE INSTITUTION OF WASHINGTON, published 2012)
Values belong to the binder of their own block, whether it stands above or below them.

Legend:
MBP-BSU1 = target: T1, MBP-BSU1 (Arabidopsis, UniProt Q9LR78 1-793); assay: overlay blot with MBP-BSU1 after incubation of GST-BSK1 with GST-BRI1-K
T1 construct: Recombinant fusion used as probe in overlay (far-western) blots and in phosphatase assays; also called BSU1 from E. coli
Description: Total protein extracts obtained from Arabidopsis plants (F1) expressing BSU1 -YFP or co-expressing BSU1-YFP and BSK1-myc were immunoprecipitated with anti-myc, and the immunoblot was probed with anti-GFP and anti-myc antibody. […] GST-BSK1 or GST-BSK1 S230A was incubated with GST-BRI1-K or GST for 2 hrs. […] In the presence of BR (+BR), BR binding to the extracellular domain of BRI1 induces dissociation of BKI1 and association and inter-activation between BRI1 and BAKI. Activated BRI1 then phosphorylates BSK1, which in turn dissociates from the receptor complex and interacts with and presumably activate BSU1. BSU1 inactivates BIN2 by dephosphorylating its pTyr200, allowing accumulation of unphosphorylated BZR1/2, likely with help of a phosphatase that is yet to be identified. Unphosphorylated BZR1/2 accumulate in the nucleus and alter the expression of BR-target genes, leading to cellular and developmental responses. While individual representative protein is shown for each function, in Arabidopsis most of these components have about 2 to 5 homologous proteins (paralogs) that can contribute to the same or similar signaling function.
To test interaction of BSU1 with BIN2 or bin2-1 in vitro, a gel blot separating GST, GST-BIN2, GSTbin2-1 was incubated with 20 μg MBP-BSU1 in 5% non-fat dry milk/PBS buffer and washed four times. The blot was then probed with a polyclonal anti-MBP antibody. […]

nYFP-BIN2 = target: T2, nYFP-BIN2 (Arabidopsis, UniProt Q39011 1-380); assay: BiFC in Arabidopsis seedlings, epidermal cells
T2 construct: BiFC construct in transgenic Arabidopsis, crossed to BZR1-cYFP plants; not shown: N-terminal half of YFP (nYFP)
T2 sequence (looked up): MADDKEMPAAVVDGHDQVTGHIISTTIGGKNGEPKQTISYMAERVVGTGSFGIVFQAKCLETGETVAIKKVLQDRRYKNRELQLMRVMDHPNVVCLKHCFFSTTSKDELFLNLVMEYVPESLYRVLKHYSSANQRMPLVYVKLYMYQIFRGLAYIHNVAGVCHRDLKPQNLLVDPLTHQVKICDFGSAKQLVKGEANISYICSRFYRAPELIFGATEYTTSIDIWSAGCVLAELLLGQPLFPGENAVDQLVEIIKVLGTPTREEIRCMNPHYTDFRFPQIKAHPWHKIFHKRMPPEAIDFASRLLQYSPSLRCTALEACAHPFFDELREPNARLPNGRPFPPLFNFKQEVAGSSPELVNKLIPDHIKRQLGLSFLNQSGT
Description: (§1) FIGS. 5A-5G show regulation of the BIN2 homolog, AtSK12 BSU1-mediated tyrosine dephosphorylation. […] Activation domain (AD) fused AtSKs were transformed into the cells containing DNA binding domain (BD) fused BZR1. Yeast clones were grown on Synthetic Dropout (SD) or SD-Histidine medium. […] Transgenic Arabidopsis plants expressing nYFP-BIN2, nYFP-AtSK12 and nYFP-AtSK12-cd (C-terminal 29 amino acid deletion) were crossed to BZR1-cYFP plants, respectively. The seedlings of F1 generation were grown in white light for 7 days and YFP signals of epidermal cells were observed. […] GST-AtSK12 was incubated with MBP-BZR1 and ³²P-γATP. CBB indicates Coomassie brilliant blue-stained gel. […] Homozygous plants expressing AtSK12-myc were treated with 0.25 MM BL for 30 min. Proteins immunoprecipitated by anti-myc antibodies were blotted onto nitrocellulose membrane and probed by anti-myc antibody. […] (h) BR induces pTyr dephosphorylation of AtSK12. Homozygous AtSK12-myc plants were pretreated with 10 μM MG132 and then treated with 0.25 μM BL (+BL) or mock solution (−BL). […]
(§2) Transformation by Agrobacterium infiltration, observations of subcellular localization and BiFC signal in tobacco or Arabidopsis were performed as described previously 5. Fluorescence of YFP was visualized by using a spinning-disk confocal microscope (Leica Microsystems, Heerbruag, Germany).

nYFP-AtSK12 = target: T3, nYFP-AtSK12 (Arabidopsis, UniProt P43289 1-409); assay: BiFC in Arabidopsis seedlings, epidermal cells
T3 construct: BiFC construct in transgenic Arabidopsis; not shown: N-terminal half of YFP (nYFP)
T3 sequence (looked up): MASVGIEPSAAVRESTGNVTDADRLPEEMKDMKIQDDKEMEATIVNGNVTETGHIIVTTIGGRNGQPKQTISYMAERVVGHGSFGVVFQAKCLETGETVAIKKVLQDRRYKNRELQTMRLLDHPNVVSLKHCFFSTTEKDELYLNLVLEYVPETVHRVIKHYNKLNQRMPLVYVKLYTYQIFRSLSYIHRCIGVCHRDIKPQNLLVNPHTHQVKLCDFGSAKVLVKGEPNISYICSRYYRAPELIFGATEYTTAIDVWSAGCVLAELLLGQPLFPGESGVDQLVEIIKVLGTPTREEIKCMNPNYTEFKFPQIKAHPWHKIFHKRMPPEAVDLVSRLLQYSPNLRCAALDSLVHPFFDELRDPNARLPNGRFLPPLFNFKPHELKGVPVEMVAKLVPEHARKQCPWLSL
Description: as §1, §2

T1 sequence (Q9LR78 whole entry, the tested form may be a part): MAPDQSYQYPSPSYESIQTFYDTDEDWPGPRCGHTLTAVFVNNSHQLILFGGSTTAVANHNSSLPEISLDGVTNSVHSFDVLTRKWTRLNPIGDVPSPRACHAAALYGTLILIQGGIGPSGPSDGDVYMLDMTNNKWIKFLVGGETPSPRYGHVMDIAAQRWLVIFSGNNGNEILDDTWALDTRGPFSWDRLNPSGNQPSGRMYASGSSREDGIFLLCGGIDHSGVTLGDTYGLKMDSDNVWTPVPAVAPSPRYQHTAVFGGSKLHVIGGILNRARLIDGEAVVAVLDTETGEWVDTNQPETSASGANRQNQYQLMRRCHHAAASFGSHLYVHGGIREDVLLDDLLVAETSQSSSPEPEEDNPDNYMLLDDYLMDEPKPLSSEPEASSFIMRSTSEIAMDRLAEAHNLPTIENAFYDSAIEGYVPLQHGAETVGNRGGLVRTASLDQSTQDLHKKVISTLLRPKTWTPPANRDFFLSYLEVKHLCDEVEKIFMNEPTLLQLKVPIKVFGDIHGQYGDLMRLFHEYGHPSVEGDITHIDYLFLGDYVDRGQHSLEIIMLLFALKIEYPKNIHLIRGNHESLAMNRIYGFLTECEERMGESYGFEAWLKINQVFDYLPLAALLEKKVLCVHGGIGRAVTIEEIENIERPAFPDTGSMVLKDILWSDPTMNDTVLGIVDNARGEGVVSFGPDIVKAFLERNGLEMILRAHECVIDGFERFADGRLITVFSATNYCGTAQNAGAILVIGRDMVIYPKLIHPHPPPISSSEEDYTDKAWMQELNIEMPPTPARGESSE

binding result (MBP-BSU1): binds
B1: GST-BSK1 phosphorylated by GST-BRI1-K (enzyme, Arabidopsis, UniProt Q944A7 1-512, looked up)
chain: MGCCQSLFSGDNPLGKDGVQPQPLSQNNHGGATTADNGGSGGASGVGGGGGGGGIPSFSEFSFADLKAATNNFSSDNIVSESGEKAPNLVYKGRLQNRRWIAVKKFTKMAWPEPKQFAEEAWGVGKLRHNRLANLIGYCCDGDERLLVAEFMPNDTLAKHLFHWENQTIEWAMRLRVGYYIAEALDYCSTEGRPLYHDLNAYRVLFDEDGDPRLSCFGLMKNSRDGKSYSTNLAYTPPEYLRNGRVTPESVTYSFGTVLLDLLSGKHIPPSHALDMIRGKNIILLMDSHLEGKFSTEEATVVVELASQCLQYEPRERPNTKDLVATLAPLQTKSDVPSYVMLGIKKQEEAPSTPQRPLSPLGEACSRMDLTAIHQILVMTHYRDDEGTNELSFQEWTQQMKDMLDARKRGDQSFREKDFKTAIDCYSQFIDVGTMVSPTVFGRRSLCYLLCDQPDAALRDAMQAQCVYPDWPTAFYMQSVALAKLNMNTDAADMLNEAAQLEEKRQRGGRGS
modifications: phosphorylated by BRI1 kinase domain in vitro; phospho-Ser230 as the site named
notes: GST-BSK1 incubated with GST-BRI1-K and 100 uM ATP for 2 hrs before SDS-PAGE; also called phosphorylated BSK1; not shown: GST (glutathione S-transferase) tag

binding result (nYFP-BIN2): binds
binding result (nYFP-AtSK12): binds
B2: BZR1-cYFP (other, Arabidopsis, UniProt Q8S307 1-336, looked up)
chain: MTSDGATSTSAAAAAAAAAAARRKPSWRERENNRRRERRRRAVAAKIYTGLRAQGDYNLPKHCDNNEVLKALCVEAGWVVEEDGTTYRKGCKPLPGEIAGTSSRVTPYSSQNQSPLSSAFQSPIPSYQVSPSSSSFPSPSRGEPNNNMSSTFFPFLRNGGIPSSLPSLRISNSCPVTPPVSSPTSKNPKPLPNWESIAKQSMAIAKQSMASFNYPFYAVSAPASPTHRHQFHTPATIPECDESDSSTVDSGHWISFQKFAQQQPFSASMVPTSPTFNLVKPAPQQMSPNTAAFQEIGQSSEFKFENSQVKPWEGERIHDVGMEDLELTLGNGKARG
notes: BiFC construct in transgenic Arabidopsis; not shown: C-terminal half of YFP (cYFP)
